For test [1], the target named is human ROR2 on the Retrogenix HEK293 cell microarray (Homo sapiens (Human)., UniProt Q01974). Briefly: Retrogenix cell microarray.
Test [2] concerns the target human ROR1 ectopically and stably expressed on mouse pre-B cell line 63-12 (Homo sapiens (Human)., UniProt Q01973). Briefly: flow cytometry on cells. Background: Flow cytometry measures light scatter and fluorescence of single cells or particles in a stream.
Test [3] concerns the target mouse ROR2 extracellular domains displayed on HEK293F cells (Mus musculus (Mouse)., UniProt Q9Z138). Briefly: flow cytometry on cells.
The target in test [4] is Fc-hROR2 protein (Homo sapiens (Human)., UniProt Q01974). Nature of the test: SPR.

Chain of mouse ROR2 extracellular domains displayed on HEK293F cells (Q9Z138 34-403): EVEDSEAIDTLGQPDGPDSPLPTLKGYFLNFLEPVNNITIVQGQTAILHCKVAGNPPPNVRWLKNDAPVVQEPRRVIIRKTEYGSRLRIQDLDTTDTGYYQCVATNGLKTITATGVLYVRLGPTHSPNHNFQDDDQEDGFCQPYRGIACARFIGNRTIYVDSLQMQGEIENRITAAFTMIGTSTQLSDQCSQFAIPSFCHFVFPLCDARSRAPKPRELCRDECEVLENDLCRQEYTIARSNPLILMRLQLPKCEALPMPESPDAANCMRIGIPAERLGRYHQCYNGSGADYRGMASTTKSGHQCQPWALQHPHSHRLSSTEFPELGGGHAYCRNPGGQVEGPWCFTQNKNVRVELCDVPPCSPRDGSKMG

B1: XBR1-402 in chimeric rabbit/human IgG1 format (antibody, V domains shown)
VH: QEQQKESGGGLFKPTDTLTLTCTASGFDISSYYMSWVRQAPGNGLEWIGAIGISGNAYYASWAKSRSTITRNTNLNTVTLKMTSLTAADTATYFCARDHPTYGMDLWGPGTLVTVSS
VL: SYELTQLPSVSVSLGQTARITCEGNNIGSKAVHWYQQKPGLAPGLLIYDDDERPSGVPDRFSGSNSGDTATLTISGAQAGDEADYYCQVWDSSAYVFGGGTQLTVT
For B1, the binding result in test [1] is given as “no binding (tested: 2 μg/mL)”.

B2: chimeric rabbit/human anti-human ROR2 Fab ERR2-TOP35 (Fab, V domains shown)
VH: QSVKESEGGLFKPMDTLTLTCTVSGFSLNTYGVSWVRQAPGNGLEWIGAVGSSGATNYASWAKSRSTITRNTNENTVTLKMTSLTAADTATYFCARDGYYSSGWGPYFSIWGPGTLVTVSS
VL: SFVLTQPASVQVNLGQTVSLTCTAETLRSSYASWYQQKPGQAPVLLIYRDTSRPSGVPDRFSGSSSGNTATLTISGAQAGDEADYYCATSDGSGSRYYVFGGGTQLTVT
Take B2: the results for the binding result in test [2] and in test [3] were “no binding” and “binds”, respectively. Moreover, binding in test [4] was put at a Kd of 43.3 nM.
